# Paper PMC11645250
# Read-outs that look alike come from different tables or passages of the source.
# T1: VP3 1-81 (D1) (Infectious bursal disease virus (Soroa …, UniProt Q9WI42 756-836))
# T1 sequence: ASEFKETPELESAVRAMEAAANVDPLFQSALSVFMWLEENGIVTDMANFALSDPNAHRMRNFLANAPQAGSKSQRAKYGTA
# What was measured:
# [1] = target: IBDV VP3 N-terminal construct (residues 1–81, D1 domain) (infectious bursal disease virus (IBDV)); test: SAXS
# [2] = target: IBDV VP3 N-terminal construct (residues 1–81, D1 domain) (infectious bursal disease virus (IBDV)); test: cross-linking
# [3] = target: IBDV VP3 N-terminal construct (residues 1–81, D1 domain) (infectious bursal disease virus (IBDV)); test: SEC-MALS
# [4] = target: IBDV VP3 D1–D2–D3 construct (residues 1–221) (infectious bursal disease virus (IBDV)); test: SAXS
# [5] = target: IBDV VP3 D1–D2–D3 construct (residues 1–221) (infectious bursal disease virus (IBDV)); test: cross-linking
# [6] = target: IBDV VP3 D1–D2–D3 construct (residues 1–221) (infectious bursal disease virus (IBDV)); test: cross-linking; remark: listed apart in the source
# [7] = target: IBDV VP3 D1–D2–D3 construct (residues 1–221) (infectious bursal disease virus (IBDV)); test: SEC-MALS
# [8] = target: IBDV VP3 central domains construct (residues 89–221, D2–D3) (infectious bursal disease virus (IBDV)); test: cross-linking
# VP3 1-81 (D1) = target: T1, VP3 1-81 (D1); test: EMSA
molecule,measurement,setting,value
"IBDV VP3 N-terminal construct (residues 1–81, D1 domain) (domain or fragment)",stoichiometry N,[1],2
same,% of the band in the dimeric form after BS3 cross-linking,[2],96.9%
same,stoichiometry N,[3],2
IBDV VP3 D1–D2–D3 construct (residues 1–221) (domain or fragment),stoichiometry N,[4],2
same,% of protein in dimers and higher MW species after BS3 cross-linking,[5],93.2%
same,% of protein in dimers and higher MW species after BS3 cross-linking,[6],93.3%
same,% of total sample in the predominant (dimer) peak,[7],98.8%
same,stoichiometry N,[7],2
"IBDV VP3 central domains construct (residues 89–221, D2–D3) (domain or fragment)",% dimerization/oligomerization after BS3 cross-linking,[8],43.5%
28 bp dsRNA (dsRNA) RNA 1: AGAACCUGUUGAACAAAAGCCGAAUAAU RNA 2: AUUAUUCGGCUUUUGUUCAACAGGUUCU,binding result,VP3 1-81 (D1),no binding
